Experimental data taken from patent publication US20100196375A1.

Target: BHV-1 virus (Cooper strain)
Test: cell-based or functional assay

Row | Binder | 50% viral neutralization end point [µg/mL] | Percent plaque reduction at 24 µg/ml, Experiment I [%] | Percent plaque reduction at 24 µg/ml, Experiment II [%] | Percent plaque reduction at 72 µg/ml, Experiment I [%] | Percent plaque reduction at 72 µg/ml, Experiment II [%] | Percent plaque reduction at 216 µg/ml, Experiment I [%] | Percent plaque reduction at 216 µg/ml, Experiment II [%] | Percent Plaque reduction at 11 µg/ml, Experiment I [%] | Percent Plaque reduction at 11 µg/ml, Experiment II [%] | Percent Plaque reduction at 33 µg/ml, Experiment I [%] | Percent Plaque reduction at 33 µg/ml, Experiment II [%] | Percent Plaque reduction at 99 µg/ml, Experiment I [%] | Percent Plaque reduction at 99 µg/ml, Experiment II [%] | Percent Plaque reduction at 15 µg/ml, Experiment I [%] | Percent Plaque reduction at 15 µg/ml, Experiment II [%] | Percent Plaque reduction at 45 µg/ml, Experiment I [%] | Percent Plaque reduction at 45 µg/ml, Experiment II [%] | Percent Plaque reduction at 135 µg/ml, Experiment I [%] | Percent Plaque reduction at 135 µg/ml, Experiment II [%] | fold higher protein concentration required for virus neutralization, compared with wild type scFv with either 7 or 18 amino acid linker [fold]
1 | recombinant scFv1-7L (scFv) scFv: QAVLTQPSSVSGSLGQRVSITCSGSSSNIGRYGVGWYQQVPGSGLRRIIYGSVSRPSGVPVRFSGSKSGDTATLTISSLQAEDEADYFCATADYTSSPVLFGSGTTLTVLGQSSRSSQVQLRESGPSLVKPSQTLSLTCTVSGFSLSGNSVGWVRQTPGKALEWLGNMDGIGTTDYNPALKSRLSITKDNSKSQVSLSLSSVTTEDTATYYCAKCTGAYCWRFDDAYGYDDWGQGLLVTVSS | 3 | 86.3 | 84.8 | 95.9 | 94.2 | 100 | 100 | – | – | – | – | – | – | – | – | – | – | – | – | –
2 | recombinant scFv3-18L (scFv) scFv: QAVLTQPSSVSGSLGQRVSITCSGSSSNIGRYGVGWYQQVPGSGLRRIIYGSVSRPSGVPVRFSGSKSGDTATLTISSLQAEDEADYFCATADYTSSPVLFGSGTTLTVLGQSSRSSSGGGSSGGGGSQVQLRESGPSLVKPSQTLSLTCTVSGFSLSGNSVGWVRQTPGKALEWLGNMDGIGTTDYNPALKSRLSITKDNSKSQVSLSLSSVTTEDTATYYCAKCTGAYCWRFDDAYGYDDWGQGLLVTVSS | 5.5 | – | – | – | – | – | – | 78.7 | 80 | 89.3 | 90.5 | 93.4 | 94.7 | – | – | – | – | – | – | –
3 | recombinant scFv4m-18L (scFv) scFv: QAVLTQPSSVSGSLGQRVSITCSGSSSNIGRYGVGWYQQVPGSGLRRIIYGSVSRPSGVPVRFSGSKSGDTATLTISSLQAEDEADYFCATADYTSSPVLFGSGTTLTVLGQSSRSSGGGGSSGGGGSQVQLRESGPSLVKPSQTLSLTCTVSGFSLSGNSVGWVRQTPGKALEWLGNMDGIGTTDYNPALKSRLSITKDNSKSQVSLSLSSVTTEGTATYYCAKCTGAYCWRFDDAYGYDDWGQGLLVTVSS | 15 | – | – | – | – | – | – | – | – | – | – | – | – | 55.8 | 48.5 | 67 | 70 | 92.4 | 92.6 | 2.7 to 5
